The record followed here is patent US8710032B2, “Inhibitors of the mevalonate pathway of Streptococcus pneumoniae” (Northwestern University, priority 2006, dated 2014).

Substrate in the data set: Nc1ncnc2c1ncn2[C@@H]1O[C@H](COP(=O)(O)OP(=O)(O)OP(=O)(O)O)[C@@H](O)[C@H]1O
Description: Initial substrate results of analogues with mevalonate kinase (FIG. 8). The data set is classed as biochemical, Streptococcus pneumoniae. To be noted: other: ATP. The protocol:
FIG. 8. Initial substrate results [analogue] ranged from 2.0-2.5 mM, except #6 (4.2 mM) and #8 (6.2 mM).
A series of compounds related to compounds 4, 5, 23, and 25 can be synthesized as potential competitive or noncompetitive reversible inhibitors of MK and DPM-DC (See, e.g., FIGS. 6-7). The representative synthesis shown (Scheme 4a) is a modification of that shown in Scheme 4, and R is limited only by availability of the corresponding reagent and synthetic technique, as would be understood by those skilled in the art made aware of this invention (e.g., alkyl, vinyl, acetylenyl, aryl, heteroaryl, etc., via Grignard reaction with the corresponding magnesium bromide or chloride).

B1: mevalonate kinase (Streptococcus pneumoniae TIGR4) (protein)
chain: MTKKVGVGQAHSKIILIGEHAVVYGYPAISLPLLEVEVTCKVVPAESPWRLYEEDTLSMAVYASLEYLNITEACIRCEIDSAIPEKRGMGSSAAISIAAIRAVFDYYQADLPHDVLEILVNRAEMIAHMNPSGLDAKTCLSDQPIRFIKNVGFTELEMDLSAYLVIADTGVYGHTREAIQVVQNKGKDALPFLHALGELTQQAEVAISQKDAEGLGQILSQAHLHLKEIGVSSPEADFLVETTLSHGALGAKMSGGGLGGCIIALVTNLTHAQELAERLEEKGAVQTWIESL
Turning to B1, the Michaelis-Menten constant (Km) is 850 µM.

What is called Km is the concentration of substrate that gives half-maximal velocity.
